# Publication PMC5829824
# Biological target: mCherry-tagged human vimentin (human) (UniProt P08670)
# Assay: co-IP; mCherry-vimentin or RFP from bEnd.3 cell extracts immunoprecipitated with RFP-trap beads, then incubated with purified InlF-His6; eluates blotted with anti-His6 and anti-RFP; densitometry
# Sequence of mCherry-tagged human vimentin (human) (P08670 whole entry): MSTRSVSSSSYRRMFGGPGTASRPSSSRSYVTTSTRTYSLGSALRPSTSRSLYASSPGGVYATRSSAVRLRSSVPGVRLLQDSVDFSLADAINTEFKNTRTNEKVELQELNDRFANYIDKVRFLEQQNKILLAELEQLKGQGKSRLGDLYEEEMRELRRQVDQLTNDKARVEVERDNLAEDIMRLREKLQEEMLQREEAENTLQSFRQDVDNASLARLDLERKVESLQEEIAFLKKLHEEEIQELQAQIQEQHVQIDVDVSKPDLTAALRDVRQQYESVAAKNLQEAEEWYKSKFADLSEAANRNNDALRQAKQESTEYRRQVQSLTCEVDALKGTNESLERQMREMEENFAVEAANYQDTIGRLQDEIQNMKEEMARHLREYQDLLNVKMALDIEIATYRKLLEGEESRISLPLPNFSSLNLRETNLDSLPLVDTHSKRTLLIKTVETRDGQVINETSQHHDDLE
substance,measurement,value
"InlF-His6 (Listeria monocytogenes internalin family surface protein InlF, His6-tagged) (from UniProt O33930 1-821) (natural protein)","ratio of anti-His to anti-RFP signals (densitometry), fold over the RFP control",> 5 fold
